Reference: US20250075006A1 (SHANDONG SIMCERE BIOPHARMACEUTICAL, published 2025)

T1: Cyno GUCY2C ECD (his-tagged cynomolgus monkey GUCY2C protein extracellular domain fusion protein) (cynomolgus monkey, UniProt P25092 24-430 (human entry))
T1 construct: also called monkey GUCY2C-his; monkey GUCY2C-His
T1 chain: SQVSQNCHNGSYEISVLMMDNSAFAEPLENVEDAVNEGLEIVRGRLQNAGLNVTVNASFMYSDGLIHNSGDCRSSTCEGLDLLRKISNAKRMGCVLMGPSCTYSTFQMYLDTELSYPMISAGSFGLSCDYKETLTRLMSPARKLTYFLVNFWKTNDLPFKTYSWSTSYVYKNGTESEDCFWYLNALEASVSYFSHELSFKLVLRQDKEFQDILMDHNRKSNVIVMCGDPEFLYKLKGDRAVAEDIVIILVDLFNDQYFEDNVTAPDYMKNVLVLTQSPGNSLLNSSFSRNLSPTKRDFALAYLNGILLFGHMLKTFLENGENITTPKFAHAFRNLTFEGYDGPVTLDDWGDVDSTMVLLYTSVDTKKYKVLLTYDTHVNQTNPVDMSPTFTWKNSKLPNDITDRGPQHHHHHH

B1: PF1608-hIgG1 (antibody, V domains shown)
VH: EVQLVESGGGLVQPGGSLRLSCAASGFTFSSYWMHWVRQAPGKGLEWIGEIKPSNELTNVHEKFKDRFTISVDKAKNSAYLQMNSLRAEDTAVYYCTRTITTTEGYWFFDVWGQGTLVTVSS
VL: DIQLTQSPSSLSASVGDRVTITCRASESVDYYGSSLLQWYQQKPGKAPKLLIYAASKLASGVPSRFSGSGSGTDFTLTISSLQPEDFATYYCQQTRKAYTFGQGTKLEIKR
notes: also called PF1608-hlgG1; positive control antibody
B2: 5F9-hIgG1 (antibody, V domains shown)
VH: QVQLQQWGAGLLKPSETLSLTCAVFGGSFSGYYWSWIRQPPGKGLEWIGEINHRGNTNDNPSLKSRVTISVDTSKNQFALKLSSVTAADTAVYYCARERGYTYGNFDHWGQGTLVTVSS
VL: EIVMTQSPATLSVSPGERATLSCRASQSVSRNLAWYQQKPGQAPRLLIYGASTRATGIPARFSGSGSGTEFTLTIGSLQSEDFAVYYCQQYKTWPRTFGQGTNVEIKR
notes: also called positive control antibody

What was measured:
[1] = biological target: T2, Human GUCY2C ECD (his-tagged human GUCY2C protein extracellular domain fusion protein) (human, UniProt P25092 24-430); test: SPR Biacore, antibody on Protein A, antigen injected
T2 construct: also called human GUCY2C-his; human GUCY2C-His
Procedure: The strength of antibody-antigen binding was assayed with a BIAcore 8K instrument using a Protein A capture method. First, Protein A was immobilized onto a CM4 chip (purchased from GE, BR-1005-34) using an amino coupling method. According to the instruction of the Amine Coupling Kit (purchased from GE, BR100633), NHS and EDC were mixed with HBS-EP+pH 7.4 as a mobile phase to activate the chip for about 600 s; the Protein A was diluted to 50 μg/mL with 10 mM sodium acetate (pH 4.5) and injected for 600 s, and finally, the remaining activated sites were blocked with ethanolamine. Then, the affinity of the antibody for the antigen was assayed using a multi-cycle kinetic method; in each cycle, first, the antibody to be tested was captured using the Protein A chip, and then a single concentration of antigen protein was injected. The association and dissociation processes of the antibody with the antigen protein were recorded, and finally, the chip was regenerated using Glycine pH 1.5, wherein the mobile phase was HBS-EP+(10 mM HEPES, 150 mM NaCl, 3 mM EDTA, 0.05% surfactant P20), the flow rate was 30 μL/min, the regeneration time was 30 s, and the assay temperature was 25° C. Finally, according to a 1:1 binding model, the data were analyzed, and the antibody-antigen binding kinetics parameters, including the association rate constant Ka, the dissociation rate constant Kd, the equilibrium dissociation constant KD, and the maximum binding signal Rmax, were fitted.
(§1) After the finally obtained various humanized antibodies were expressed and purified, the affinities of the humanized antibodies for the human and monkey GUCY2C proteins were separately assayed according to the method in Example 4.6.

[2] = biological target: T2, Human GUCY2C ECD (his-tagged human …); test: ELISA, plate coated with human GUCY2C-his, OD450
Procedure: A human GUCY2C-his protein was diluted with PBS to a final concentration of 2 μg/mL and then added to a 96-well ELISA plate at 50 μL/well. The plate was sealed with a plastic film and incubated at 4° C. overnight. The next day, the plate was washed 2 times with PBST, and a blocking buffer [PBS+2% (w/w) BSA] was added for blocking at room temperature for 2 h. The blocking buffer was discarded, and the recombinant antibody and positive and negative control antibody with a starting concentration of 100 nM serially diluted by 3 folds were added at 50 μL/well. After incubation at 37° C. for 1 h, the plate was washed 3 times with PBST. A horseradish peroxidase (HRP)—labeled secondary antibody (purchased from Merck, Cat. No. AP113P) was added for incubation at 37° C. for 1 h, and the plate was washed 5 times with PBST. A TMB substrate was added at 50 μL/well for incubation at room temperature for 10 min, and then a stop solution (1.0 M HCl) was added at 50 μL/well. The OD450 nm values were read by an ELISA plate reader (Multimode Plate Reader, EnSight, purchased from Perkin Elmer).

[3] = biological target: T1, Cyno GUCY2C ECD (his-tagged cynomolgus …); test: ELISA, plate coated with monkey GUCY2C-his, OD450
[4] = biological target: T2, Human GUCY2C ECD (his-tagged human …); test: BLI Gator, antibody on anti-human Fc probe, antigen in solution
Procedure: (§2) Next, we measured the affinity of the recombinant antibody by another method, and the specific procedures were as follows: the binding strength of the antibody to the antigen was assayed by acquiring and analyzing the signal change of the reflection interference spectrum on the surface of the optical probe by using thin film interference technology. First, the probe was equilibrated for 300 s with HBS-T+pH 7.4 (0.02% tween) as the mobile phase. 2 μg/mL of the antibody to be tested was captured by an anti-human FC probe (purchased from ProbeLife, PL168-160003) for 240 s, and then antigen proteins with the concentration of 200 nM and diluted two-fold were injected. Kon for 300 s and Koff for 600 s. The association and dissociation processes of the antibody with the antigen protein were recorded, and finally, the chip was regenerated using Glycine pH 2.0 (purchased from GE), wherein the mobile phase was HBS-T+pH 7.4 (0.02% tween), the regeneration time was 5 s, and the assay temperature was 30° C. Finally, according to a 1:1 binding model, the data were analyzed, and the antibody-antigen binding kinetics parameters, including the association rate constant Ka, the dissociation rate constant Kd, the equilibrium dissociation constant KD, and the maximum binding signal Rmax, were fitted. The association rate (Ka), dissociation rate (Kd), and binding affinity (KD) of the recombinant antibodies with the human GUCY2C and monkey GUCY2C proteins are shown in Table 6.
as §1

[5] = biological target: T1, Cyno GUCY2C ECD (his-tagged cynomolgus …); test: as above
Procedure: as §2, §1

T2 sequence (P25092 other isoform, or with tags, fused parts or gaps): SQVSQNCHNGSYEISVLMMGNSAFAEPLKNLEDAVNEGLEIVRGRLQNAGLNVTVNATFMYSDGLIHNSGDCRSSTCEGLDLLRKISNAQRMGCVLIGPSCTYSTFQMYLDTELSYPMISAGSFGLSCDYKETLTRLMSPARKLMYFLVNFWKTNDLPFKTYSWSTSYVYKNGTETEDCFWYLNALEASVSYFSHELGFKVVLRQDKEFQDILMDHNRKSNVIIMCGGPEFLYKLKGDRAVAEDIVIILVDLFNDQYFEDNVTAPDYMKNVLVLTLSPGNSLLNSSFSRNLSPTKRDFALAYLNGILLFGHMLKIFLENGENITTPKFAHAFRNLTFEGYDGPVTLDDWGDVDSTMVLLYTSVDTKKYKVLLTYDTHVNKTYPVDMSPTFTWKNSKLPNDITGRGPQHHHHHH

Binder | Kd [1] [nM] | koff [1] [s⁻¹] | kon [1] [M⁻¹ s⁻¹] | EC50 (read off the curve) [2] [nM] | EC50 (read off the curve) [3] [nM] | Kd [4] [nM] | koff [4] [s⁻¹] | kon [4] [M⁻¹ s⁻¹] | Kd [5] [nM] | koff [5] [s⁻¹] | kon [5] [M⁻¹ s⁻¹]
B1 | 1.63 | 0.000258 | 158000 | ~0.09 | ~0.05 | 0.494 | 0.000197 | 400000 | 0.256 | 0.000138 | 540000
B2 | 4.05 | 0.000565 | 140000 | ~0.05 | ~0.03 | 1.14 | 0.000448 | 391000 | 0.998 | 0.000486 | 487000
